Measurements from PMC4504706, “Deinococcus radiodurans PriA is a Pseudohelicase”.

T1: PriA (D. radiodurans) (Deinococcus radiodurans R1, UniProt P0DXX8 1-925)
T1 sequence: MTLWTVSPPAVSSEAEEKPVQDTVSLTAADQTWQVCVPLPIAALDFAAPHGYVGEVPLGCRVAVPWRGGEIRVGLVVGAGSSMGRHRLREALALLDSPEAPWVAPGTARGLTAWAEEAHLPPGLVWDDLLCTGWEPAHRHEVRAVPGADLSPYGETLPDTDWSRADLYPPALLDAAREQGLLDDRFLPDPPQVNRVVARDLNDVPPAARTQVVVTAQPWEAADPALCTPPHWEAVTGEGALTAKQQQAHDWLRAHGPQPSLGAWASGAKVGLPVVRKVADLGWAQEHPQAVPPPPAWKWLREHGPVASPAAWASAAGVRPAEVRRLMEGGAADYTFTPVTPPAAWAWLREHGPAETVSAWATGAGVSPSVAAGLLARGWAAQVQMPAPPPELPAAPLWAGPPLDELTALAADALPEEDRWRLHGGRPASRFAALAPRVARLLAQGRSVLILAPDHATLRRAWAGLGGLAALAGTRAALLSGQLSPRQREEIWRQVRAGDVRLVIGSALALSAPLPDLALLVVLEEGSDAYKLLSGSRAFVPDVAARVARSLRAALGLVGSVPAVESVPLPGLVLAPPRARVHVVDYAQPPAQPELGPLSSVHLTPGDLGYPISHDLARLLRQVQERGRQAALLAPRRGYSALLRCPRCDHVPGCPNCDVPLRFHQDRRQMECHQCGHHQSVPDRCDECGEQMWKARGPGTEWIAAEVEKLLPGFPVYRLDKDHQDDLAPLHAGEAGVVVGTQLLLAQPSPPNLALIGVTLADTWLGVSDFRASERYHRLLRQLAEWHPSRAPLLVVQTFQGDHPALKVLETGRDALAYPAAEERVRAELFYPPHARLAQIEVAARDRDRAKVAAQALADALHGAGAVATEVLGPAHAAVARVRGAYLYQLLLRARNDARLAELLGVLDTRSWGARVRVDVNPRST

B1: fully-duplex fork DNA, 25 bp arms (structured_DNA)
DNA 1: GTCGGATCCTCTAGACAGCTCCATGATCACTGGCACTGGTAGAATTCGGC
DNA 2: AACGTCATAGACGATTACATTGCTACATGGAGCTGTCTAGAGGATCCGAC
DNA 3: GCCGAATTCTACCAGTGCCAGTGAT
DNA 4: TAGCAATGTAATCGTCTATGACGTT
B2: 18-base mixed-sequence ssDNA (ssDNA)
DNA: AAGCACAATTACCCACGC

How the values were obtained:
[1] = molecular target: T1, PriA (D. radiodurans); assay: fluorescence anisotropy; 1 mM Mg2+, no ATP listed; apparent Kd (half-bound); 20 mM Tris-HCl pH 8, 15% glycerol, 50 mM NaCl, 1 mM MgCl2, 1 mM 2-mercaptoethanol, 0.1 g/L BSA, 1 nM DNA, 25 C; conditions: protein: recombinant, tags: N-terminal His6 removed by thrombin, leaving Gly-Ser-His before Met1
[2] = molecular target: PriA (E. coli) (Escherichia coli K12, UniProt P17888 1-732); assay: as above; conditions: protein: recombinant
Sequence of PriA (E. coli) (P17888 whole entry): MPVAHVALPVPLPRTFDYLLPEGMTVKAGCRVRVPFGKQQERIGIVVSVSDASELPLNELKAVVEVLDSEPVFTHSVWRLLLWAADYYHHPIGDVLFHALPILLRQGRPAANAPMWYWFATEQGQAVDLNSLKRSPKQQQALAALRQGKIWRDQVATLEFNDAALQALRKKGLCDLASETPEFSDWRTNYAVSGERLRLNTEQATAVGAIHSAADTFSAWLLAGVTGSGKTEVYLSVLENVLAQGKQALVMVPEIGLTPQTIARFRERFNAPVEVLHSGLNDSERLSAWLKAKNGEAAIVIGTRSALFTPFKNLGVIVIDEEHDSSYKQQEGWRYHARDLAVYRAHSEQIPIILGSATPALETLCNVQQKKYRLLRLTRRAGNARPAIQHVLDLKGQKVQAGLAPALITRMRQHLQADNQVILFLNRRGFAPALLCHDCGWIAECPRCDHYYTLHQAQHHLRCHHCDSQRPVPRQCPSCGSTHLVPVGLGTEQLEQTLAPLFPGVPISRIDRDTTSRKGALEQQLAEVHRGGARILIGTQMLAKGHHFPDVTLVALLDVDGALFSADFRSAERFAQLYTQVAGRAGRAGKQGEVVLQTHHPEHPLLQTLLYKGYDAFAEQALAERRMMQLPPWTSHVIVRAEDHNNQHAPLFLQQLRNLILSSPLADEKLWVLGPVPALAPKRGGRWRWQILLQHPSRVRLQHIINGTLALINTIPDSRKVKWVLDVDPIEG

[3] = label: 3' fluorescein on S8 (nascent lagging strand), three-way fork without gap: S5[1-25]:S6[26-50] parental, S5[26-50]:S7 leading, S6[1-25]:S8 lagging, blunt arms
[4] = label: 3' fluorescein, single strand

Row | Binder | Kd [1, 3] | Kd [2, 3] | Kd [1, 4] | Kd [2, 4]
1 | B1 | 108 ± 1.7 nM | 52.1 ± 1 nM | – | –
2 | B2 | – | – | 215 ± 17 nM | 129 ± 11.9 nM
